From patent US10584350B2, “Structurally modified COI1” (Board of Trustees of Michigan State University, priority 2016, dated 2020)

Each molecule was assayed on COI1-JAZ9 interaction (assay: Y2H assays on plates for protein-protein interaction). Details: 10 μM COR, yeast.
Type: cell-based, Arabidopsis
Method: Yeast EGY48 strain carrying the p8Op:LacZ reporter plasmid was co-transformed with pGilda:COI1 (or COI1 mutants) and pB42AD:JAZ9 (or other JAZs) (Clontech). Colonies were selected on SD minimal plates (BD Biosciences) supplemented with the—uracil (U)/-tryptophan (W)/-histidine (H) amino acid drop out solution (Clontech). Yeast colonies were cultured overnight in liquid SD-UWH medium, harvested, washed twice in sterile water, and the absorbance (OD600) of the cultures was adjusted to 0.2 in liquid SD galactose/raffinose-UWH medium (BD Biosciences).
For Y2H assays on plates, 10-μL culture was spotted onto SD galactose/raffinose-UWH plates with 80 μg/mL X-gal and 10 μM COR (Sigma-Aldrich). Blue color indicated protein-protein interactions after 5-7 days of incubation at 30° C.

| Molecule | COR-dependent COI1-JAZ9 interaction |
| --- | --- |
| Y386: COI1 alanine substitution mutant at Y386 (protein, UniProt O04197 1-592, looked up, variant Y386A) Coronatine-insensitive …: MEDPDIKRCKLSCVATVDDVIEQVMTYITDPKDRDSASLVCRRWFKIDSETREHVTMALCYTATPDRLSRRFPNLRSLKLKGKPRAAMFNLIPENWGGYVTPWVTEISNNLRQLKSVHFRRMIVSDLDLDRLAKARADDLETLKLDKCSGFTTDGLLSIVTHCRKIKTLLMEESSFSEKDGKWLHELAQHNTSLEVLNFYMTEFAKISPKDLETIARNCRSLVSVKVGDFEILELVGFFKAAANLEEFCGGSLNEDIGMPEKYMNLVFPRKLCRLGLSYMGPNEMPILFPFAAQIRKLDLLYALLETEDHCTLIQKCPNLEVLETRNVIGDRGLEVLAQYCKQLKRLRIERGADEQGMEDEEGLVSQRGLIALAQGCQELEYMAVAVSDITNESLESIGTYLKNLCDFRLVLLDREERITDLPLDNGVRSLLIGCKKLRRFAFYLRQGGLTDLGLSYIGQYSPNVRWMLLGYVGESDEGLMEFSRGCPNLQKLEMRGCCFSERAIAAAVTKLPSLRYLWVQGYRASMTGQDLMQMARPYWNIELIPSRRVPEVNQQGEIREMEHPAHILAYYSLAGQRTDCPTTVRVLKEPI | reduced |
| L412: COI1 alanine substitution mutant at L412 (protein, UniProt O04197 1-592, looked up, variant L412A) Coronatine-insensitive …: MEDPDIKRCKLSCVATVDDVIEQVMTYITDPKDRDSASLVCRRWFKIDSETREHVTMALCYTATPDRLSRRFPNLRSLKLKGKPRAAMFNLIPENWGGYVTPWVTEISNNLRQLKSVHFRRMIVSDLDLDRLAKARADDLETLKLDKCSGFTTDGLLSIVTHCRKIKTLLMEESSFSEKDGKWLHELAQHNTSLEVLNFYMTEFAKISPKDLETIARNCRSLVSVKVGDFEILELVGFFKAAANLEEFCGGSLNEDIGMPEKYMNLVFPRKLCRLGLSYMGPNEMPILFPFAAQIRKLDLLYALLETEDHCTLIQKCPNLEVLETRNVIGDRGLEVLAQYCKQLKRLRIERGADEQGMEDEEGLVSQRGLIALAQGCQELEYMAVYVSDITNESLESIGTYLKNLCDFRLVALDREERITDLPLDNGVRSLLIGCKKLRRFAFYLRQGGLTDLGLSYIGQYSPNVRWMLLGYVGESDEGLMEFSRGCPNLQKLEMRGCCFSERAIAAAVTKLPSLRYLWVQGYRASMTGQDLMQMARPYWNIELIPSRRVPEVNQQGEIREMEHPAHILAYYSLAGQRTDCPTTVRVLKEPI | reduced |
| V411: COI1 alanine substitution mutant at V411 (protein, UniProt O04197 1-592, looked up, variant V411A) Coronatine-insensitive …: MEDPDIKRCKLSCVATVDDVIEQVMTYITDPKDRDSASLVCRRWFKIDSETREHVTMALCYTATPDRLSRRFPNLRSLKLKGKPRAAMFNLIPENWGGYVTPWVTEISNNLRQLKSVHFRRMIVSDLDLDRLAKARADDLETLKLDKCSGFTTDGLLSIVTHCRKIKTLLMEESSFSEKDGKWLHELAQHNTSLEVLNFYMTEFAKISPKDLETIARNCRSLVSVKVGDFEILELVGFFKAAANLEEFCGGSLNEDIGMPEKYMNLVFPRKLCRLGLSYMGPNEMPILFPFAAQIRKLDLLYALLETEDHCTLIQKCPNLEVLETRNVIGDRGLEVLAQYCKQLKRLRIERGADEQGMEDEEGLVSQRGLIALAQGCQELEYMAVYVSDITNESLESIGTYLKNLCDFRLALLDREERITDLPLDNGVRSLLIGCKKLRRFAFYLRQGGLTDLGLSYIGQYSPNVRWMLLGYVGESDEGLMEFSRGCPNLQKLEMRGCCFSERAIAAAVTKLPSLRYLWVQGYRASMTGQDLMQMARPYWNIELIPSRRVPEVNQQGEIREMEHPAHILAYYSLAGQRTDCPTTVRVLKEPI | reduced |
| R415: COI1 alanine substitution mutant at R415 (protein, UniProt O04197 1-592, looked up, variant R415A) Coronatine-insensitive …: MEDPDIKRCKLSCVATVDDVIEQVMTYITDPKDRDSASLVCRRWFKIDSETREHVTMALCYTATPDRLSRRFPNLRSLKLKGKPRAAMFNLIPENWGGYVTPWVTEISNNLRQLKSVHFRRMIVSDLDLDRLAKARADDLETLKLDKCSGFTTDGLLSIVTHCRKIKTLLMEESSFSEKDGKWLHELAQHNTSLEVLNFYMTEFAKISPKDLETIARNCRSLVSVKVGDFEILELVGFFKAAANLEEFCGGSLNEDIGMPEKYMNLVFPRKLCRLGLSYMGPNEMPILFPFAAQIRKLDLLYALLETEDHCTLIQKCPNLEVLETRNVIGDRGLEVLAQYCKQLKRLRIERGADEQGMEDEEGLVSQRGLIALAQGCQELEYMAVYVSDITNESLESIGTYLKNLCDFRLVLLDAEERITDLPLDNGVRSLLIGCKKLRRFAFYLRQGGLTDLGLSYIGQYSPNVRWMLLGYVGESDEGLMEFSRGCPNLQKLEMRGCCFSERAIAAAVTKLPSLRYLWVQGYRASMTGQDLMQMARPYWNIELIPSRRVPEVNQQGEIREMEHPAHILAYYSLAGQRTDCPTTVRVLKEPI | reduced |
| L413: COI1 alanine substitution mutant at L413 (protein, UniProt O04197 1-592, looked up, variant L413A) Coronatine-insensitive …: MEDPDIKRCKLSCVATVDDVIEQVMTYITDPKDRDSASLVCRRWFKIDSETREHVTMALCYTATPDRLSRRFPNLRSLKLKGKPRAAMFNLIPENWGGYVTPWVTEISNNLRQLKSVHFRRMIVSDLDLDRLAKARADDLETLKLDKCSGFTTDGLLSIVTHCRKIKTLLMEESSFSEKDGKWLHELAQHNTSLEVLNFYMTEFAKISPKDLETIARNCRSLVSVKVGDFEILELVGFFKAAANLEEFCGGSLNEDIGMPEKYMNLVFPRKLCRLGLSYMGPNEMPILFPFAAQIRKLDLLYALLETEDHCTLIQKCPNLEVLETRNVIGDRGLEVLAQYCKQLKRLRIERGADEQGMEDEEGLVSQRGLIALAQGCQELEYMAVYVSDITNESLESIGTYLKNLCDFRLVLADREERITDLPLDNGVRSLLIGCKKLRRFAFYLRQGGLTDLGLSYIGQYSPNVRWMLLGYVGESDEGLMEFSRGCPNLQKLEMRGCCFSERAIAAAVTKLPSLRYLWVQGYRASMTGQDLMQMARPYWNIELIPSRRVPEVNQQGEIREMEHPAHILAYYSLAGQRTDCPTTVRVLKEPI | reduced |
| D407: COI1 alanine substitution mutant at D407 (protein, UniProt O04197 1-592, looked up, variant D407A) Coronatine-insensitive …: MEDPDIKRCKLSCVATVDDVIEQVMTYITDPKDRDSASLVCRRWFKIDSETREHVTMALCYTATPDRLSRRFPNLRSLKLKGKPRAAMFNLIPENWGGYVTPWVTEISNNLRQLKSVHFRRMIVSDLDLDRLAKARADDLETLKLDKCSGFTTDGLLSIVTHCRKIKTLLMEESSFSEKDGKWLHELAQHNTSLEVLNFYMTEFAKISPKDLETIARNCRSLVSVKVGDFEILELVGFFKAAANLEEFCGGSLNEDIGMPEKYMNLVFPRKLCRLGLSYMGPNEMPILFPFAAQIRKLDLLYALLETEDHCTLIQKCPNLEVLETRNVIGDRGLEVLAQYCKQLKRLRIERGADEQGMEDEEGLVSQRGLIALAQGCQELEYMAVYVSDITNESLESIGTYLKNLCAFRLVLLDREERITDLPLDNGVRSLLIGCKKLRRFAFYLRQGGLTDLGLSYIGQYSPNVRWMLLGYVGESDEGLMEFSRGCPNLQKLEMRGCCFSERAIAAAVTKLPSLRYLWVQGYRASMTGQDLMQMARPYWNIELIPSRRVPEVNQQGEIREMEHPAHILAYYSLAGQRTDCPTTVRVLKEPI | reduced |
| R440: COI1 alanine substitution mutant at R440 (protein, UniProt O04197 1-592, looked up, variant R440A) Coronatine-insensitive …: MEDPDIKRCKLSCVATVDDVIEQVMTYITDPKDRDSASLVCRRWFKIDSETREHVTMALCYTATPDRLSRRFPNLRSLKLKGKPRAAMFNLIPENWGGYVTPWVTEISNNLRQLKSVHFRRMIVSDLDLDRLAKARADDLETLKLDKCSGFTTDGLLSIVTHCRKIKTLLMEESSFSEKDGKWLHELAQHNTSLEVLNFYMTEFAKISPKDLETIARNCRSLVSVKVGDFEILELVGFFKAAANLEEFCGGSLNEDIGMPEKYMNLVFPRKLCRLGLSYMGPNEMPILFPFAAQIRKLDLLYALLETEDHCTLIQKCPNLEVLETRNVIGDRGLEVLAQYCKQLKRLRIERGADEQGMEDEEGLVSQRGLIALAQGCQELEYMAVYVSDITNESLESIGTYLKNLCDFRLVLLDREERITDLPLDNGVRSLLIGCKKLRAFAFYLRQGGLTDLGLSYIGQYSPNVRWMLLGYVGESDEGLMEFSRGCPNLQKLEMRGCCFSERAIAAAVTKLPSLRYLWVQGYRASMTGQDLMQMARPYWNIELIPSRRVPEVNQQGEIREMEHPAHILAYYSLAGQRTDCPTTVRVLKEPI | reduced |
| L410: COI1 alanine substitution mutant at L410 (protein, UniProt O04197 1-592, looked up, variant L410A) Coronatine-insensitive …: MEDPDIKRCKLSCVATVDDVIEQVMTYITDPKDRDSASLVCRRWFKIDSETREHVTMALCYTATPDRLSRRFPNLRSLKLKGKPRAAMFNLIPENWGGYVTPWVTEISNNLRQLKSVHFRRMIVSDLDLDRLAKARADDLETLKLDKCSGFTTDGLLSIVTHCRKIKTLLMEESSFSEKDGKWLHELAQHNTSLEVLNFYMTEFAKISPKDLETIARNCRSLVSVKVGDFEILELVGFFKAAANLEEFCGGSLNEDIGMPEKYMNLVFPRKLCRLGLSYMGPNEMPILFPFAAQIRKLDLLYALLETEDHCTLIQKCPNLEVLETRNVIGDRGLEVLAQYCKQLKRLRIERGADEQGMEDEEGLVSQRGLIALAQGCQELEYMAVYVSDITNESLESIGTYLKNLCDFRAVLLDREERITDLPLDNGVRSLLIGCKKLRRFAFYLRQGGLTDLGLSYIGQYSPNVRWMLLGYVGESDEGLMEFSRGCPNLQKLEMRGCCFSERAIAAAVTKLPSLRYLWVQGYRASMTGQDLMQMARPYWNIELIPSRRVPEVNQQGEIREMEHPAHILAYYSLAGQRTDCPTTVRVLKEPI | reduced |
